According to patent publication US20200109211A1 (ELSALYS BIOTECH, published 2020):
Values belong to the binder of their own block, whether it stands above or below them.

Columns and labels:
[1] = target: T1, recombinant human CD160 protein, soluble form, with a C-terminal tag of 6 histidine residues (R&D SYSTEMS) (human, UniProt O95971 27-159, limits assumed, biotinylated with EZ-Link sulfo-NHS-LC-biotin for BLI and ELISA; not biotinylated when immobilised on the CM5 chip for SPR); assay: BLI
T1 construct: domain: soluble form; Bought protein; also called hCD160-his; biotinylated CD160
T1 sequence: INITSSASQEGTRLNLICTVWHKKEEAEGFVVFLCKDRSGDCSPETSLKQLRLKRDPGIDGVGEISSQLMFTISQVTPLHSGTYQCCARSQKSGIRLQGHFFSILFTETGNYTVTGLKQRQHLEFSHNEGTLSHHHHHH

[2] = target: T2, human CD160 (CD160 GPI isoform) on cells (human, UniProt O95971 25-159, GPI anchor); assay: cell-based or functional assay
T2 sequence (looked up): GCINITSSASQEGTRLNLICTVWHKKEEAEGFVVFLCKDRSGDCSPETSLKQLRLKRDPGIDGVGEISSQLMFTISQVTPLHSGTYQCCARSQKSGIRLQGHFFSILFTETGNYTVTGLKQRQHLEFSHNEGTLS

[3] = target: T1, recombinant human CD160 protein, …; assay: BLI (repeats Table 9)
[4] = target: T2, human CD160 (CD160 GPI isoform) on cells; assay: flow cytometry on CHO-hCD160 transfectants
Experimental: The binding capacity of the anti-CD160 H7 antibodies and of the variants (D12 and A09) thereof in the IgG4 and IgG1 format and in the IgG1 E345K format was evaluated during the labelling of surface CD160 expressed in a recombinant line CHO-S-hCD160 (clone 2G10) in comparison with non-transfected CHO-S cells, by measuring the median fluorescence index (MFI) (see FIG. 1). For this, 5×10⁺⁵ 2G10 (CHO-S-CD160) and non-transfected CHO-S cells were labelled with 2 μg of each of these antibodies and also with the appropriate control isotypes. In FIG. 1, all the anti-CD160 tested (regardless of the isotype or the IgG format or the variant) specifically recognize human CD160 expressed recombinantly by the CHO-S cells.
In FIG. 1B, the IgG4 variants bind more efficiently to the CHO-hCD160 transfectants than H7 (which results in a median fluorescence increased by a factor of 2 compared with H7 IgG4 ELB01101 or with H7 IgG4 H310A-H435Q ELB01102), this being even in the presence of the H310A-H435Q mutations.

[5] = target: T1, recombinant human CD160 protein, …; assay: SPR (Biacore), design close to Example 2
[6] = target: T1, recombinant human CD160 protein, …; assay: BLI, biotinylated CD160 at 10 nM on streptavidin sensor, antibody 3.13-100 nM
[7] = target: T2, human CD160 (CD160 GPI isoform) on cells; assay: flow cytometry, percentage of labelled YT2C2 NK cells (2x10^5 cells), antibody 0.39 to 50 nM [panel C]
Experimental: The binding capacity of the anti-CD160 H7 antibody and of the H7 D12 variant in the IgG4, Fab and Fab-linker Fab format was evaluated during the labelling of surface CD160 expressed naturally on a clone of NK cell line (YT2C2), by measuring the percentage of cell labelled=percentage of binding (see FIG. 1C). For this, 2×10⁺⁵ YT2C2 cells were labelled with increasing concentration of antibodies (from 50 nM to 0.39 nM) and also with the appropriate control isotype. […] In FIG. 1C, IgG4 variants ELB01103 and ELB01104 bind more efficiently to the YT2C2 cells than the H7 IgG4 ELB01101 (which results in a EC₅₀ increased by a factor of 10 compared with H7 IgG4). This is also true for the Fab-linker-Fab format ELB01132. By contrast Fab format ELB01122 bind less efficiently to the YT2C2 cells than the H7 IgG4 ELB01101 (which results in a EC₅₀ decreased by a factor of 2 compared with H7 IgG4). This is certainly due to the monovalency of the Fab format.

[8] = target: T1, recombinant human CD160 protein, …; assay: BLI, biotinylated CD160 at 10 nM on streptavidin sensor, antibody 3.13-100 nM; remark: listed apart in the source
Experimental: (§1) All the experiments were carried out at 30° C. in the running buffer recommended by Fortebio (PBS with 0.1% (p/v) of bovine serum albumin (BSA) and 0.02% (v/v) Tween-20). This buffer was also used for diluting the various ligands and analytes. The samples deposited in a 96-well microplate (cat #738-0026, Dutscher) were shaken at 1000 revolutions per minute.
(§2) The dissociation constants and the association (kₒₙ) and dissociation (kdis) rate constants for each antibody were calculated by applying a 1:1 interaction model, with overall mathematical modelling of curves (fit) (Rmax bound by the sensor) on the ForteBio 9.0 data analysis software.

[9] = target: T1, recombinant human CD160 protein, …; assay: BLI (Octet K2), biotinylated hCD160-His on streptavidin sensor, antibody as analyte
Experimental: as §1
Between the measurements, the surfaces of the biosensor were regenerated by exposing them to 3 cycles of 5 sec in 10 mM glycine, pH 2, followed by 5 sec in running buffer. The association and dissociation phases were measured for 300 seconds. All the measurements were corrected for the basic drift by subtracting a reference well with a ligand subjected only to the running buffer.
as §2

[10] = target: T1, recombinant human CD160 protein, …; assay: BLI, biotinylated CD160 at 10 nM on streptavidin sensor, antibody 3.13-100 nM (row repeated from Table 9)
Experimental: as §1, §2

B1: D12 in the IgG1 format (antibody)
heavy: not shown
light: EIVLTQSPATLSLSPGERATLSCRASQSISNHLHWYQQKPGQAPRLLIKYASQSISGIPARFSGSGSGTDFTLTISSLEPEDFAVYFCQQSNSWPLTFGGGTKVEIKRTVAAPSVFIFPPSDEQLKSGTASVVCLLNNFYPREAKVQWKVDNALQSGNSQESVTEQDSKDSTYSLSSTLTLSKADYEKHKVYACEVTHQGLSSPVTKSFNRGEC
notes: also called ELB02102
Gain in KD/respective IgG [1]: 1.9 fold | EC50 of NK cell activation (IFN-γ, CD69), improvement against ELB02101 [2]: 2 to 3 logs | Kd [3]: 1.55 nM | koff [3]: 0.000654 s⁻¹ | kon [3]: 422000 M⁻¹ s⁻¹ | median fluorescence, factor against H7 IgG1 [4]: 3 fold | Gain in KD/respective IgG [5]: 2.7 fold | Kd [5]: 4.5 nM | koff [5]: 0.00113 s⁻¹ | kon [5]: 251000 M⁻¹ s⁻¹ | Kd [6]: 1.55 nM | koff [6]: 0.000654 s⁻¹ | kon [6]: 422000 M⁻¹ s⁻¹

B2: H7 D12 in the Fab linker Fab format (other)
heavy: QVQLVQSGAEVKKPGASVKVSCKASGYTFSDFWMQWIRQAPGQGLEWIGAIYPGDDDARVTQKFRGRATLTADKSTSTAYMELSSLRSEDTAVYYCARRGIAAVVGGFDYWGQGTTLTVSSASTKGPSVFPLAPSSKSTSGGTAALGCLVKDYFPEPVTVSWNSGALTSGVHTFPAVLQSSGLYSLSSVVTVPSSSLGTQTYICNVNHKPSNTKVDKRVEPKSCDKGGGGSGGGGSGGGGSQVQLVQSGAEVKKPGASVKVSCKASGYTFSDFWMQWIRQAPGQGLEWIGAIYPGDDDARVTQKFRGRATLTADKSTSTAYMELSSLRSEDTAVYYCARRGIAAVVGGFDYWGQGTTLTVSSASTKGPSVFPLAPSSKSTSGGTAALGCLVKDYFPEPVTVSWNSGALTSGVHTFPAVLQSSGLYSLSSVVTVPSSSLGTQTYICNVNHKPSNTKVDKRVEPKSCDK
light: B1 light
notes: two light chains follow from the format; also called ELB01132; D12 Fab linker Fab
EC50 (read off the curve) [7]: ~2 nM

B6: A09 in the IgG1 E345K format (antibody)
heavy: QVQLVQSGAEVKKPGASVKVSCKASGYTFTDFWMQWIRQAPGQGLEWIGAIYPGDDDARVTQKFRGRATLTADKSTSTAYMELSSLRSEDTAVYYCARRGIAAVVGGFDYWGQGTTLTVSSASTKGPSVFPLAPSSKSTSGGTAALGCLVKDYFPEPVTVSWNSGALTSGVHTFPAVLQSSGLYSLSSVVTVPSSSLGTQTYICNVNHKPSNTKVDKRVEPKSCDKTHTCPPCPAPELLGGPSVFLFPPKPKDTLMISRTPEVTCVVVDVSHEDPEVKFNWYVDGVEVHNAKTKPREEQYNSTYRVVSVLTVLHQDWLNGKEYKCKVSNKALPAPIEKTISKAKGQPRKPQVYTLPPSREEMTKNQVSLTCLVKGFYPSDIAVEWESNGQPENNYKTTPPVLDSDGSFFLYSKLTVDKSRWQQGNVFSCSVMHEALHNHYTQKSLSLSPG
light: B1 light
notes: also called ELB02114
EC50 of IFN-gamma production by NK cells, additional improvement against the IgG1 variants [2]: 2 logs | EC50 of IFN-gamma production by NK cells, improvement against ELB02101 [2]: 4 logs | median fluorescence, factor against H7 IgG1 [4]: 3 fold | Kd [8]: 1.93 nM | koff [8]: 0.000825 s⁻¹ | kon [8]: 427000 M⁻¹ s⁻¹

The next lines start with the values.

EC50 of IFN-gamma production by NK cells, additional improvement against the IgG1 variants [2]: 2 logs | EC50 of IFN-gamma production by NK cells, improvement against ELB02101 [2]: 4 logs | median fluorescence, factor against H7 IgG1 [4]: 3 fold | Kd [8]: 1.52 nM | koff [8]: 0.000679 s⁻¹ | kon [8]: 447000 M⁻¹ s⁻¹
B3: D12 in the IgG1 E345K format (antibody)
heavy: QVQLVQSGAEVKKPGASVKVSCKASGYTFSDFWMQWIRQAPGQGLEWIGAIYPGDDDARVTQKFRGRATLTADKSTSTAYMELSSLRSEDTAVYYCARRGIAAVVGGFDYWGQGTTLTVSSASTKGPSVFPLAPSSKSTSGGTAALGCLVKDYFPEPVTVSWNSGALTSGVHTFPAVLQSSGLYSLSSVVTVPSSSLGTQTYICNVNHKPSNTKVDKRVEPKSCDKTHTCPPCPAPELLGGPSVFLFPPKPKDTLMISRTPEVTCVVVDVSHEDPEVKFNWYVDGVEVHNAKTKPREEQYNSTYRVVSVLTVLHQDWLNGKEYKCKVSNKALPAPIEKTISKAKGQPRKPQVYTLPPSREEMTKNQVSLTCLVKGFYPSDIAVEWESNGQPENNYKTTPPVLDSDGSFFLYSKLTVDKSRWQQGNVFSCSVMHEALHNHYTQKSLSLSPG
light: B1 light
notes: also called ELB02112

Kd [3]: 2.94 nM | koff [3]: 0.00109 s⁻¹ | kon [3]: 370000 M⁻¹ s⁻¹ | Kd [5]: 12 nM | koff [5]: 0.00251 s⁻¹ | kon [5]: 209000 M⁻¹ s⁻¹ | Kd [6]: 2.94 nM | koff [6]: 0.00109 s⁻¹ | kon [6]: 370000 M⁻¹ s⁻¹ | Binding response, at 50 nM of anti-CD160 [9]: 1.01 nm (arbitrary units) | Kd [9]: 4 nM | koff [9]: 0.00235 s⁻¹ | kon [9]: 587000 M⁻¹ s⁻¹ | Kd [10]: 2.94 nM | koff [10]: 0.00109 s⁻¹ | kon [10]: 370000 M⁻¹ s⁻¹
B4: anti-CD160 H7 antibody in the human IgG1 format (antibody)
heavy: not shown
light: B1 light
notes: also called H7 IgG1; ELB02101

Gain in KD/respective IgG [1]: 2 fold | EC50 of NK cell activation (IFN-γ, CD69), improvement against ELB02101 [2]: 2 to 3 logs | Kd [3]: 1.47 nM | koff [3]: 0.000651 s⁻¹ | kon [3]: 442000 M⁻¹ s⁻¹ | median fluorescence, factor against H7 IgG1 [4]: 3 fold | Gain in KD/respective IgG [5]: 3 fold | Kd [5]: 3.9 nM | koff [5]: 0.000877 s⁻¹ | kon [5]: 223000 M⁻¹ s⁻¹ | Kd [6]: 1.47 nM | koff [6]: 0.000651 s⁻¹ | kon [6]: 442000 M⁻¹ s⁻¹
B5: A09 in the IgG1 format (antibody)
heavy: not shown
light: B1 light
notes: also called ELB02104; H7 A09 variant in IgG1 format
